Measured values published in patent US20100267637A1, “TREATMENT OF MELANOMA WITH ALPHA THYMOSIN PEPTIDES IN COMBINATION WITH A KINASE INHIBITOR” (SciClone Pharmaceuticals, Inc., priority 2007, published 2010).
“Also recorded” adds a separate entry of the source. Where no end group is shown, it is not given here.

Tests used:
[1] = Treatment toxicity: body weight and drug-induced animal deaths in B16 melanoma-bearing mice; type: in vivo, C57BL/6 mice; details: for body weight effect in words (loss / difference vs vehicle group): throughout the course of the study
Protocol: (§1) The toxic effects of the dosing regimens were also monitored. […] Meanwhile 9H10 was given in two groups via i.p. on Day 3, 6 and 9. […] Tumor volume and body weight were measured every three days, and tumor weights were measured on Day 16 at the end of the study.
(§2) On Day 3, the animals were randomly assigned into nine different weight-matched and tumor-size-matched groups. Dosing was started on Day 3 using the regimen according to Table 2.
(§3) From Day 1 to Day 15, mortality and moribundity were checked twice daily, the body weights were recorded once every 3 days, and tumors were measured using a caliper once every 3 days. At the end of the study (Day 16), the animals were euthanized by CO2 asphyxiation, and the tumors were excised and weighed.
Toxicity of all treatment regimens was evaluated with the body weights of the study animals along with the drug-induced animal deaths. The inhibition of body weight was calculated using Excel according to the equation below:
PIBW(%)=100×(BW vehicle−BW drug treated)/BW vehicle
(§4) Inter-group comparison was performed in terms of tumor volume, tumor weight and body weight, using a student's t test. P values of less than 0.05 were considered to be statistically significant.

[2] = system: murine B16 melanoma cells; test: Anti-tumor effect: tumor weight at necropsy (Day 16) in mice bearing subcutaneous B16 melanoma; type: in vivo, C57BL/6 mice
Protocol: as §1
On the day of tumor implantation, approximately 1×10^6 cells in 0.1 mL were subcutaneously injected on the right axillary area of each mouse. The day of tumor implantation was defined as Day 0.
as §2, §3
The anti-tumor effect of the test article was further evaluated with tumor weight (TW) measured on day of necropsy (Day 16). The PI of TW was calculated using the equation below:
PITW(%)=100×(TW vehicle−TW drug treated)/TW vehicle
as §4

## Thymosin Alpha-1 (Ac-SDAAVDTSSEITTKDLKEKKEVVEEAEN; ends and bridges not checked; UniProt P06454 2-29, looked up) [TA-1, 28 amino acid peptide, immunomodulator; test article (SciClone), 6 mg/kg s.c. daily]
[1]; Day 0, animal F1
  Body weights on Day 0: 21.40 g
[1]; Day 0, animal F2
  Body weights on Day 0: 19.20 g
[1]; Day 0, animal F3
  Body weights on Day 0: 21.10 g
[1]; Day 0, animal F4
  Body weights on Day 0: 20.20 g
[1]; Day 0, animal F5
  Body weights on Day 0: 19.00 g
[1]; Day 0, animal M1
  Body weights on Day 0: 21.60 g
[1]; Day 0, animal M2
  Body weights on Day 0: 22.50 g
[1]; Day 0, animal M3
  Body weights on Day 0: 22.10 g
[1]; Day 0, animal M4
  Body weights on Day 0: 21.70 g
[1]; Day 0, animal M5
  Body weights on Day 0: 19.80 g
[1]; Day 0
  Percent inhibition of body weight vs vehicle (PIBW): −0.1440%
[1]; Day 3 (start of dosing)
  Body Weight (g) (Mean ± SD): 20.44 ± 1.460 g
[1]; Day 3, animal F3
  Body weights on Day 3: 20.40 g
[1]; Day 3, animal F4
  Body weights on Day 3: 20.30 g
[1]; Day 3, animal F5
  Body weights on Day 3: 17.20 g
[1]; Day 3, animal M1
  Body weights on Day 3: 21.40 g
[1]; Day 3, animal M2
  Body weights on Day 3: 22.20 g
[1]; Day 3, animal M3
  Body weights on Day 3: 21.60 g
[1]; Day 3, animal M4
  Body weights on Day 3: 21.50 g
[1]; Day 3
  Percent inhibition of body weight vs vehicle (PIBW): 2.1073%
[1]; Day 6
  Body Weight (g) (Mean ± SD): 21.38 ± 1.220 g
  Percent inhibition of body weight vs vehicle (PIBW): −4.8039%
[1]; Day 6, animal F1
  Body weights on Day 6: 22.10 g
[1]; Day 6, animal F2
  Body weights on Day 6: 20.10 g
[1]; Day 6, animal F3
  Body weights on Day 6: 21.80 g
[1]; Day 6, animal F4
  Body weights on Day 6: 20.80 g
[1]; Day 6, animal F5
  Body weights on Day 6: 20.20 g
[1]; Day 6, animal M1
  Body weights on Day 6: 22.00 g
[1]; Day 6, animal M2
  Body weights on Day 6: 22.90 g
[1]; Day 6, animal M3
  Body weights on Day 6: 22.30 g
[1]; Day 6, animal M4
  Body weights on Day 6: 22.40 g
[1]; Day 6, animal M5
  Body weights on Day 6: 19.20 g
[1]; Day 9, animal F1
  Body weights on Day 9: 21.50 g
[1]; Day 9, animal F2
  Body weights on Day 9: 19.70 g
[1]; Day 9, animal F3
  Body weights on Day 9: 20.30 g
[1]; Day 9, animal F4
  Body weights on Day 9: 20.40 g
[1]; Day 9, animal F5
  Body weights on Day 9: 19.20 g
[1]; Day 9, animal M1
  Body weights on Day 9: 21.50 g
[1]; Day 9, animal M2
  Body weights on Day 9: 22.40 g
[1]; Day 9, animal M3
  Body weights on Day 9: 22.00 g
[1]; Day 9, animal M4
  Body weights on Day 9: 21.90 g
[1]; Day 9, animal M5
  Body weights on Day 9: 19.90 g
[1]; Day 9
  Percent inhibition of body weight vs vehicle (PIBW): −2.3028%
[1]; Day 12
  Body Weight (g) (Mean ± SD): 21.24 ± 1.623 g
  Percent inhibition of body weight vs vehicle (PIBW): 2.9694%
[1]; Day 12, animal F1
  Body weights on Day 12: 21.90 g
[1]; Day 12, animal F2
  Body weights on Day 12: 19.10 g
[1]; Day 12, animal F3
  Body weights on Day 12: 20.70 g
[1]; Day 12, animal F5
  Body weights on Day 12: 18.90 g
[1]; Day 12, animal M1
  Body weights on Day 12: 22.60 g
[1]; Day 12, animal M2
  Body weights on Day 12: 23.50 g
[1]; Day 12, animal M3
  Body weights on Day 12: 22.70 g
[1]; Day 12, animal M4
  Body weights on Day 12: 22.40 g
[1]; Day 12, animal M5
  Body weights on Day 12: 19.70 g
[1]; Day 15
  Body Weight (g) (Mean ± SD): 22.74 ± 1.459 g
  Percent inhibition of body weight vs vehicle (PIBW): −2.7100%
[1]; Day 15, animal F1
  Body weights on Day 15: 24.30 g
[1]; Day 15, animal F2
  Body weights on Day 15: 20.70 g
[1]; Day 15, animal F3
  Body weights on Day 15: 22.30 g
[1]; Day 15, animal F4
  Body weights on Day 15: 21.80 g
[1]; Day 15, animal F5
  Body weights on Day 15: 21.30 g
[1]; Day 15, animal M1
  Body weights on Day 15: 22.60 g
[1]; Day 15, animal M2
  Body weights on Day 15: 24.50 g
[1]; Day 15, animal M3
  Body weights on Day 15: 24.70 g
[1]; Day 15, animal M4
  Body weights on Day 15: 23.70 g
[1]; Day 15, animal M5
  Body weights on Day 15: 21.50 g
[1]
  body weight effect in words (loss / difference vs vehicle group): did no cause any statistically significant loss of body weights; also recorded: did not cause any loss of body weights
[1]; listed as TA-1 alone
  body weight effect in words (loss / difference vs vehicle group): no statistical differences in body weights
[2]; animal F1
  Tumor weight on Day 16: 0.63 g
[2]; animal F2
  Tumor weight on Day 16: 0.44 g
[2]; animal F3
  Tumor weight on Day 16: 0.45 g
[2]; animal F4
  Tumor weight on Day 16: 0.75 g
[2]; animal F5
  Tumor weight on Day 16: 0.08 g
[2]; animal M1
  Tumor weight on Day 16: 0.73 g
[2]; animal M2
  Tumor weight on Day 16: 1.30 g
[2]; animal M3
  Tumor weight on Day 16: 2.00 g
[2]; animal M4
  Tumor weight on Day 16: 2.20 g
[2]; animal M5
  Tumor weight on Day 16: 1.05 g
[2]; group mean
  Tumor Weight (g) (Mean ± SD): 0.96 ± 0.688 g
[2]; vs vehicle
  percent inhibition of tumor weight vs vehicle: 43.35%
